In PMC11560701:
Like-named read-outs stand apart in the source and are kept apart here.

Tests used:
[1] = target: H2A.Z/H3K9cme3 mono-nucleosome (208-bp 601 Widom DNA) (mouse | Xenopus laevis) (UniProt P0C0S6); test: AUC
[2] = target: H2A.Z/H3K9cme3 mono-nucleosome (208-bp 601 Widom DNA) (mouse | Xenopus laevis) (UniProt P0C0S6); test: AUC; remark: listed apart in the source

Chain of human HP1α (heterochromatin protein 1 alpha), full length (P45973 whole entry): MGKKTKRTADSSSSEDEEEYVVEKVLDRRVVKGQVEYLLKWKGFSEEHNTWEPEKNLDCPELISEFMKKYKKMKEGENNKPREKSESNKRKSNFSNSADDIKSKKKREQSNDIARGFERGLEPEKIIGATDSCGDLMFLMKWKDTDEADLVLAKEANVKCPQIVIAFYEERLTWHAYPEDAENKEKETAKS

Kd [1]: 1 µM | stoichiometry N (HP1α dimers per nucleosome) [1]: 2 | Kd [2]: 850 µM
Substance: human HP1α (heterochromatin protein 1 alpha), full length (from UniProt P45973 1-191) (natural protein)
